In PMC13630248 (PLOS Biology, 2026):

Columns and labels:
[1] = target: RpYN06 Spike, full-length, on the cell surface (Betacoronavirus sp. RpYN06, strain …, strain); assay: flow cytometry on cells; conditions: one partner purified
[2] = target: T1, SARS-CoV-2 RBD (recombinant receptor binding domain of Spike) (SARS-CoV-2, UniProt P0DTC2); assay: ELISA; conditions: both partners purified
[3] = target: T1, SARS-CoV-2 RBD (recombinant receptor …); assay: SPR; conditions: both partners purified

| Binder | binding result [1] | binding result [2] | binding result [3] |
| --- | --- | --- | --- |
| V1WT_06 IgG (antibody, V domains shown, copies: 2 + 2) VH: EVQLVQSGAEVKKPGASVKVSCKASGYTFSSHGISWVRQAPGQGLEWMGWISTYNGNTNSAQNLQGRVTMTADTSTSTAYMELRSLRSDDTAVYYCARGPWGYCSGTSCYYWTPDNPAYSYHGMDVWGQGTTVTVSS VL: not shown | binds |  |  |
| V1WT_41 IgG (antibody, V domains shown, copies: 2 + 2) VH: QVQLQESGPGLVKPSETVSVTCTVSGGSITRSNYYWGWIRQPPGKGLEWIGSIFYNGNTNYNPSLKSRLTISVDTSKNQFSLKLSSVTAADTAVYYCARTAPYYYDRSGYYQKEEYFQRWGQGTLVTVSS VL: EIVMTQSPSTLSASVGDRVTITCRASQSISTWLAWYQQKPGKAPNLLIYQASSLESGVPSRFSGSGSGTEFTLTISSLQPDDFATYYCQQYNNYPRTFGQGTKLEIK | binds | binds |  |
| VA14_26 IgG (antibody, V domains shown, copies: 2 + 2) VH: QVQLQQWGAGLLKPSDTLSLTCGISGGPFSGYYWSWIRQPPGKGLEWLGEINHSGITTYNPSLKSRGTISVDTSKRQISLKLASVTAADTAVYYCARFAYGDYGWDYSSDMDVWGKGTTVTVSS VL: DIQLTQSPSTLSASVGDRVTITCRASQSISTWLAWHQQIPGKAPKLLIYRASTLQSGVPSRFSGSGSGTEFTLTISSLQPDDFATYYCQQYYSVRTFGQGTKVDIK | binds |  | binds |
| V1WT_06 Fab (Fab, V domains shown) VH: EVQLVQSGAEVKKPGASVKVSCKASGYTFSSHGISWVRQAPGQGLEWMGWISTYNGNTNSAQNLQGRVTMTADTSTSTAYMELRSLRSDDTAVYYCARGPWGYCSGTSCYYWTPDNPAYSYHGMDVWGQGTTVTVSS VL: not shown |  | binds |  |
